Tested on: inflamed eye of male albino rabbits
Assay: In vivo treatment of ocular inflammation induced by arachidonic acid sodium salt
Parameters: species or system rabbit
Details: 50 μl given 30 minutes after 0.5% arachidonic acid sodium salt; scored 30-210 minutes
Method: Inflammation in the eye of male albino rabbits as described in Example 7 is induced by applying a drop of eye drops containing 0.5% arachidonic acid sodium salt (SA-irritating agent) at time 0. After 30 minutes, the sample under examination is administered to the inflamed eye. Finally, the ocular inflammation index is evaluated at different time points. In the present test, the samples under examination were: • I) 50 μl of free lactoferrin (not encapsulated into the lipid bilayer of liposomes) dissolved in PBS (comparative example); • II) 50 μl of F2 liposomes.
As positive control (C+-comparative), a rabbit administered with SA at time 0, without any administration after 30 minutes, has been used.
The ocular inflammation has been evaluated for each time point at 30, 60, 90, 120, 150, 180 and 210 minutes and the inflammation index has been consequently calculated for each time point according to the tables of the previous Example.

B1: lactoferrin (protein, UniProt P02788 20-710, looked up)
Lactotransferrin: GRRRSVQWCAVSQPEATKCFQWQRNMRKVRGPPVSCIKRDSPIQCIQAIAENRADAVTLDGGFIYEAGLAPYKLRPVAAEVYGTERQPRTHYYAVAVVKKGGSFQLNELQGLKSCHTGLRRTAGWNVPIGTLRPFLNWTGPPEPIEAAVARFFSASCVPGADKGQFPNLCRLCAGTGENKCAFSSQEPYFSYSGAFKCLRDGAGDVAFIRESTVFEDLSDEAERDEYELLCPDNTRKPVDKFKDCHLARVPSHAVVARSVNGKEDAIWNLLRQAQEKFGKDKSPKFQLFGSPSGQKDLLFKDSAIGFSRVPPRIDSGLYLGSGYFTAIQNLRKSEEEVAARRARVVWCAVGEQELRKCNQWSGLSEGSVTCSSASTTEDCIALVLKGEADAMSLDGGYVYTAGKCGLVPVLAENYKSQQSSDPDPNCVDRPVEGYLAVAVVRRSDTSLTWNSVKGKKSCHTAVDRTAGWNIPMGLLFNQTGSCKFDEYFSQSCAPGSDPRSNLCALCIGDEQGENKCVPNSNERYYGYTGAFRCLAENAGDVAFVKDVTVLQNTDGNNNEAWAKDLKLADFALLCLDGKRKPVTEARSCHLAMAPNHAVVSRMDKVERLKQVLLHQQAKFGRNGSDCPDKFCLFQSETKNLLFNDNTECLARLHGKTTYEKYLGPQYVAGITNLKKCSTSPLLEACEFLRK
In the case of B1, the “Treatment of ocular inflammation (ocular inflammation score, FIG. 1)” value is reported as “not obtained”.

Reference: patent US20200046641A1, “LIPOSOMES FOR THE TREATMENT OF OCULAR DISEASES” (TDC Technology Dedicated to Care srl, priority 2018, published 2020)
